Reference: patent EP1146896B1

Tests used:
[1] = molecular target: B29-N^ε-myristoyl-des(B30) human insulin (human) (UniProt P01308); assay: sedimentation velocity (DCDT Plus, single Gaussian fit), self-association, pH 8.4
[2] = molecular target: B29-N^ε-myristoyl-des(B30) human insulin (human) (UniProt P01308); assay: sedimentation velocity (DCDT Plus, single Gaussian fit), self-association, pH 7.97
[3] = molecular target: B29-N^ε-myristoyl-des(B30) human insulin (human) (UniProt P01308); assay: sedimentation velocity (DCDT Plus, single Gaussian fit), self-association, pH 7.5; heterogeneous
[4] = molecular target: B29-N^ε-myristoyl-des(B30) human insulin (human) (UniProt P01308); assay: sedimentation velocity, area of the profile compared with an ideal hypothetical hexamer curve, self-association, pH 8.0 (7.97)
[5] = molecular target: B28-N^ε-myristoyl-Lys^B28Pro^B29 human insulin analog (human); assay: static light scattering, self-association, pH 7.5
[6] = molecular target: B28-N^ε-myristoyl-Lys^B28Pro^B29 human insulin analog (human); assay: static light scattering, self-association, pH 7.8
[7] = molecular target: B28-N^ε-myristoyl-Lys^B28Pro^B29 human insulin analog (human); assay: static light scattering, self-association, pH 8.0
[8] = molecular target: B28-N^ε-myristoyl-Lys^B28Pro^B29 human insulin analog (human); assay: static light scattering, self-association, pH 8.3
[9] = molecular target: B28-N^ε-myristoyl-Lys^B28Pro^B29 human insulin analog (human); assay: static light scattering, self-association, pH 8.5
[10] = molecular target: B28-N^ε-myristoyl-Lys^B28Pro^B29 human insulin analog (human); assay: sedimentation velocity analysed with DCDT Plus, self-association, pH 8.0
[11] = molecular target: B28-N^ε-myristoyl-Lys^B28Pro^B29 human insulin analog (human); assay: sedimentation velocity, self-association, 10 mM Tris pH 7.96 (monomer 6,018 g/mole, theoretical hexamer 36,108 g/mole)
[12] = molecular target: B28-N^ε-myristoyl-Lys^B28Pro^B29 human insulin analog (human); assay: sedimentation velocity, self-association, 7 mM phosphate pH 7.95 (monomer 6,018 g/mole, theoretical hexamer 36,108 g/mole)
[13] = molecular target: B29-N^ε-octanoyl-Asp^B28 human insulin analog (human); assay: sedimentation velocity (DCDT Plus, two Gaussian fit), self-association, pH 8.0
[14] = molecular target: B29-N^ε-octanoyl-Asp^B28 human insulin analog (human); assay: sedimentation velocity (DCDT Plus, two Gaussian fit), self-association, pH 7.5; hexamer said not to be dominant
[15] = molecular target: B29-N^ε-octanoyl-Asp^B28 human insulin analog (human); assay: sedimentation velocity (DCDT Plus, two Gaussian fit), self-association, pH 7.5; the model is the 27,700 g/mole species, not hexamer
[16] = molecular target: B28-N^ε-octanoyl-Lys^B28Pro^B29 human insulin analog (human); assay: sedimentation velocity (DCDT Plus), self-association, pH 8.0, first fit
[17] = molecular target: B28-N^ε-octanoyl-Lys^B28Pro^B29 human insulin analog (human); assay: sedimentation velocity (DCDT Plus), self-association, pH 8.0, refined fit

Substance: B29-N^ε-myristoyl-des(B30) human insulin (from UniProt P01308 25-110; P01308 25-110) (ligand)
- MW (g/mole) of association [1]: 39000 g/mol
- MW (g/mole) of association [2]: 30700 g/mol
- MW (g/mole) of association [3]: 23000 g/mol
- percent in the hexamer association state [4]: > 92 percent

Substance: B28-N^ε-myristoyl-Lys^B28Pro^B29 human insulin analog (ligand)
- Mw (weight-average molecular weight of association) [5]: 127000 g/mol
- Mw (weight-average molecular weight of association) [6]: 60700 g/mol
- Mw (weight-average molecular weight of association) [7]: 40400 g/mol
- Mw (weight-average molecular weight of association) [8]: 40400 g/mol
- Mw (weight-average molecular weight of association) [9]: 49100 g/mol
- molecular weight of association [10]: 34400 grams/mole
- percent of data described by the hexamer model [10]: > 96%
- Calculated MW of association [11]: 35000 g/mol
- Calculated MW of association [12]: 34300 g/mol

Substance: B29-N^ε-octanoyl-Asp^B28 human insulin analog (ligand)
- molecular weight of association [13]: 33200 g/mol
- percent of data described by the hexamer model [13]: 85%
- molecular weight of association [14]: 27700 g/mol
- percent of data described by the model [15]: > 92%

Substance: B28-N^ε-octanoyl-Lys^B28Pro^B29 human insulin analog (ligand)
- molecular weight of association [16]: 35300 g/mol
- molecular weight of association [17]: 40800 g/mol
- percent of data described by the hexamer model [17]: > 94%
